Test results: US20230192794A1

Target: IL10Rβ on human cell lines (HT-29, HEK-293T) (human (cells stated as human)) (UniProt Q08334)
Test: cell-based or functional assay

IL10Rβ on human cell lines (HT-29, HEK-293T) (human (cells stated as human)), sequence (Q08334 20-325): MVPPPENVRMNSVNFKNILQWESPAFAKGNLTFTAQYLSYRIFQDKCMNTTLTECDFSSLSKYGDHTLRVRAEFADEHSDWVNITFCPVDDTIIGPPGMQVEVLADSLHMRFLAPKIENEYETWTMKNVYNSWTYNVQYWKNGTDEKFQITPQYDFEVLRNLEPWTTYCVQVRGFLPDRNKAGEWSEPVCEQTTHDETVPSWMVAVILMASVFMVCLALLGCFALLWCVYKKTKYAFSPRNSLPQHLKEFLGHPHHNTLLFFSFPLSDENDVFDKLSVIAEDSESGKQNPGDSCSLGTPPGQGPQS

22-B3 (mouse IL-22 S45E/Q116A/K124A/Q128A) (from UniProt Q9JJY9 34-179) (ligand)
Emax for STAT1 (phospho-Y701-STAT1) in HT-29 cells, phospho-flow (% of the WT IL-22 Emax): 30 | Emax for STAT3 (phospho-Y705-STAT3) in HT-29 cells, phospho-flow (% of the WT IL-22 Emax): 100
